The subject of assay [1] is release of arachidonic acid from HUVEC (PLA2). Briefly: Release of [3H]-labeled arachidonic acid from HUVEC. Type of assay: cell-based, human. The settings on record: for inhibition of release of arachidonic acid from HUVEC by PLA2 inhibitors: 40 μM AACOCF3, 1 μM OPC, 1 μM BEL. The method, then:
HUVEC were cultured for 24 hours in the presence of [^3H]-labeled arachidonic acid. Then the medium was replaced by DMEM and the culture was continued in the presence of […] of CF6 at 37° C. for an additional 30 minutes. Then the release of the [^3H]-labeled arachidonic acid into the liquid culture was examined. […] The same test was carried out in the presence of 1 μM of bradykinin.
Next, the effects of a cPLA2 inhibitor (40 μM of AACOCF3: arachidonic acid […]), an sPLA2 inhibitor (1 μM of OPC; oleyloxyethylphosphorylcholine) and an iPLA2 inhibitor (1 μM of BEL: […]) of inhibiting the release of arachidonic acid form HUVEC were examined. […] Namely, the PLA2 participating in the release of arachidonic acid is cPLA2 (FIGS. 20 and 21).

The subject of assay [2] is spontaneously hypertensive rats (SHR). Briefly: Arterial blood pressure of anesthetized SHR, measured in the open manner from the carotid artery. The assay is classed as in vivo, rat. The settings on record: SHR 15 weeks of age; rCF6 0.3, 1.0, 3.0 μg/kg bolus into femoral vein. The method, then: (§1) Blood pressure was measured in the open manner by inserting catheters directly into the aorta of rats anesthetized with 75 mg/kg of ketamine and 15 mg/kg of xylazine hydrochloride. Namely, two polyethylene catheters filled with physiological saline containing 20 U/ml of heparin were inserted respectively into the left carotid artery and the left femoral vein. Then the catheter inserted into the left carotid artery was connected to a pressure detector (Carrier Amplifier AP-601G, Nihon Kohden Co.). Each sample was dissolved in 200 μL of physiological saline and then administered via the vena cava.
(§2) SHR and WKY each 16 weeks of age were anesthetized and the anti-rCF6 antibody (0.3, 1.0 and 3.0 μg/kg) was administered by bolus injection into the femoral vein. Then the arterial blood pressure was measured in the open manner from the carotid artery.
(§3) Effects of the anti-rCF6 antibody on the effect of bradykinin of lowering rat blood pressure were examined. SHR and WKY each 16 weeks of age were anesthetized and bradykinin (0.3, 1.0 and 3.0 μg/kg) was cumulatively administered by bolus injection into the femoral vein. Then the arterial blood pressure was measured in the open manner from the carotid artery. […]
(§4) Effects of rCF6 on rat blood pressure were examined. […] Then the arterial blood pressure was measured in an open manner from the carotid artery.

The subject of assay [3] is rats with normal blood pressure (WKY). Nature of the assay: Arterial blood pressure of anesthetized WKY, measured in the open manner from the carotid artery. Type of assay: in vivo, rat. Conditions: WKY 15 weeks of age; rCF6 0.3, 1.0, 3.0 μg/kg bolus into femoral vein. The method, then:
as §1, §2, §3, §4

In assay [4] the test system is PGI2 production of human umbilical venal endothelial cells (HUVEC). Briefly: Inhibition of PGI2 production (6-keto-PGF1α secreted into the medium) in HUVEC. The assay is classed as cell-based. The method, then:
The activity of inhibiting the PGI2 production was evaluated by measuring the stable metabolite of PGI2 (6-keto-PGF1α) secreted into the medium of smooth muscle cells collected from SHR mesenteric artery or human umbilical venal endothelial cells (HUVEC). Namely, the smooth muscle cells collected from SHR mesenteric artery were subcultured in a Dulbecco's modified Eagle medium (DMEM) containing 10% (v/v) of fetal calf serum until these cells attained the confluent state. HUVEC were proliferated in a synthetic medium (HuMedia, Kurabo Industries) containing 2% (v/v) of fetal calf serum, 10 ng/ml of EGF, 5 ng/ml of bFGF, 1 μg/ml of hydrocortisone and 10 μg/ml of heparin. The smooth muscle cells collected from SHR mesenteric artery or HUVEC were incubated for 30 minutes in the DMEM medium containing the sample to be analyzed and 6-keto-PGF1α secreted into the medium during the incubation period was determined.
HUVEC were cultured at 37° C. for 30 minutes in the DMEM containing 1, 10 and 100 nM of rCF6 prepared in Referential Example 2 and thus the inhibition of the PGI2 production by CF6 was examined. The production of PGI2 was measured with the guidance of the amount of 6-keto-PGF1α, which is a stable metabolite of PGI2, secreted into the medium. […] The same test was carried out in the presence of 1 μM of bradykinin.
Further, 10 nM of CF6 inhibited the increase in the PGI2 production due to 2 μg/ml of ionomycin but not the increase therein due to 10 ng/ml of arachidonic acid and 10 ng/ml of PGH2.

For the molecule `CCCCCCCC/C=C\CCCCCCCCOCCOP(=O)([O-])OCC[N+](C)(C)C` [OPC, oleyloxyethylphosphorylcholine], the “inhibition of release of arachidonic acid from HUVEC by PLA2 inhibitors” value (from here on “inhibition”) in assay [1] is given as “cPLA2 inhibitor alone inhibited”.

Take `O=C1O/C(=C/Br)CCC1c1cccc2ccccc12` (stereo not drawn) [BEL, bromoenolcholine]: in assay [1], the “inhibition” value was “cPLA2 inhibitor alone inhibited”.

As for `CCCCC/C=C\C/C=C\C/C=C\C/C=C\CCCC(=O)C(F)(F)F` [AACOCF3, arachidonic acid 3-fluoromethyl ketone], the “inhibition” value in assay [1] was “inhibited the release of arachidonic acid”.

B1: rCF6: rat coupling factor 6, a 76 amino acid subunit of H+ ATP synthase (SEQ ID NO:2), recombinantly produced (protein)
chain: NKELDPVQKLFLDKIREYKAKRLASGGPVDTGPEYQQEVDRELFKLKQMYGKGEMDKFPTFNFEDPKFEVLDKPQS
modifications: Rat
Consider B1, for which the “average arterial blood pressure” value in assay [2] and in assay [3] was “dose-dependently increased” each time. Also, the “release of [3H]-labeled arachidonic acid” value in assay [1] (HUVEC, 1, 10 and 100 mM CF6, 37° C., 30 minutes) is on record as “dose-dependently inhibited”. In assay [1] (HUVEC, CF6 1, 10 and 100 mM, in the presence of 1 μM bradykinin), the “bradykinin-promoted release of [3H]-labeled arachidonic acid” value is listed as “dose-dependently inhibited”. Moreover, the “increase in PGI2 production due to PGH2” value in assay [4] (10 nM CF6, 10 ng/ml PGH2) is given as “not”. Further, in assay [4] (10 nM CF6, 10 ng/ml arachidonic acid), the “increase in PGI2 production due to arachidonic acid” value is given as “not”. Also, the “increase in PGI2 production due to ionomycin” value in assay [4] (10 nM CF6, 2 μg/ml ionomycin) is listed as “inhibited”. The “PGI2 production (6-keto-PGF1α)” value in assay [4] (HUVEC, 1, 10 and 100 nM rCF6, 37° C., 30 minutes) was “dose-dependently inhibited”. Moreover, in assay [4] (HUVEC, 1, 10 and 100 nM rCF6, in the presence of 1 μM bradykinin), the “increase in PGI2 production due to bradykinin” value is reported as “dose-independently inhibited”.

(Values after patent publication US7049079B1, “Coupling factor 6 inhibitor and potentiator and use thereof” (Daiichi Suntory Pharma Co.,Ltd., priority 1999, dated 2006).)
